The results in this text go back to PMC3963918, “CCHCR1 Interacts Specifically with the E2 Protein of Human Papillomavirus Type 16 on a Surface Overlapping BRD4 Binding” (PLoS ONE, 2014).

Test [1] has as its target T1, HPV16 E2 protein fused to Gaussia luciferase fragment GL2 (human papillomavirus type 16, UniProt P03120 1-365).
T1 construct: source: 293 T cells, transfected (pSPICA-N2), in lysate
T1 sequence: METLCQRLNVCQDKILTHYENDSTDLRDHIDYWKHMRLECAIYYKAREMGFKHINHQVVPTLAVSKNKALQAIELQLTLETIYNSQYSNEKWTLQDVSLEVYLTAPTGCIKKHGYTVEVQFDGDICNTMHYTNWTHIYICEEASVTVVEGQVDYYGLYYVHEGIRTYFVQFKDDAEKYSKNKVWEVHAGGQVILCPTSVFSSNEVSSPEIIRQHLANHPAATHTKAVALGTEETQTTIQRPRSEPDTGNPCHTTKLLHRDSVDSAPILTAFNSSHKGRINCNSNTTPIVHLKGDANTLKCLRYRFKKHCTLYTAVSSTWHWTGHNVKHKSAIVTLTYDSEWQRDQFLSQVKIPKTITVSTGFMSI
Nature of the test: split reporter (BiFC, NanoBiT). Conditions: partners not purified.

Test [2] concerns the target T1, HPV16 E2 protein fused to Gaussia …. Nature of the test: split reporter (BiFC, NanoBiT); GPCA competition: GL1 and GL2 partners plus a 3XFlag-tagged challenging protein (0.5 ug of each plasmid) in 293 T cells, 12-well plates, harvested 40 h after transfection; NLR relative to empty plasmid. Conditions: partners not purified.

B1: CCHCR1 (Coiled-Coil alpha HeliCal Rod protein 1), polypeptide from amino acid 137 to the stop codon, fused to Gaussia luciferase fragment GL1 (domain or fragment)
chain: KAGRAEAEGLRAALAGAEVVRKNLEEGSQRELEEVQRLHQEQLSSLTQAHEEALSSLTSKAEGLEKSLSSLETRRAGEAKELAEAQREAELLRKQLSKTQEDLEAQVTLVENLRKYVGEQVPSEVHSQTWELERQKLLETMQHLQEDRDSLHATAELLQVRVQSLTHILALQEEELTRKVQPSDSLEPEFTRKCQSLLNRWREKVFALMVQLKAQELEHSDSVKQLKGQVASLQEKVTSQSQEQAILQRSLQDKAAEVEVERMGAKGLQLELSRAQEARRRWQQQTASAEEQLRLVVNAVSSSQIWLETTMAKVEGAAAQLPSLNNRLSYAVRKVHTIRGLIARKLALAQLRQESCPLPPPVTDVSLELQQLREERNRLDAELQLSARLIQQEVGRAREQGEAERQQLSKVAQQLEQELQQTQESLASLGLQLEVARQGQQESTEEAASLRQELTQQQELYGQALQEKVAEVETRLREQLSDTERRLNEARREHAKAVVSLRQIQRRAAQEKERSQELRRLQEEARKEEGQRLARRLQELERDKNLMLATLQQEGLLSRYKQQRLLTVLPSLLDKKKSVVSSPRPPECSASAPVAAAVPTRESIKGSLSVLLDDLQDLSEAISKEEAVCQGDNLDRCSSSNPQMSS
notes: also called Pg8; SBP
Turning to B1, the “NLR (Normalized Luminescence Ratio)” value in test [1] was ~250.

B2: 3XFLAG-tagged CCHCR1, shorter E2-interacting isoform (amino acid 137 to the stop codon) (domain or fragment)
chain: KAGRAEAEGLRAALAGAEVVRKNLEEGSQRELEEVQRLHQEQLSSLTQAHEEALSSLTSKAEGLEKSLSSLETRRAGEAKELAEAQREAELLRKQLSKTQEDLEAQVTLVENLRKYVGEQVPSEVHSQTWELERQKLLETMQHLQEDRDSLHATAELLQVRVQSLTHILALQEEELTRKVQPSDSLEPEFTRKCQSLLNRWREKVFALMVQLKAQELEHSDSVKQLKGQVASLQEKVTSQSQEQAILQRSLQDKAAEVEVERMGAKGLQLELSRAQEARRRWQQQTASAEEQLRLVVNAVSSSQIWLETTMAKVEGAAAQLPSLNNRLSYAVRKVHTIRGLIARKLALAQLRQESCPLPPPVTDVSLELQQLREERNRLDAELQLSARLIQQEVGRAREQGEAERQQLSKVAQQLEQELQQTQESLASLGLQLEVARQGQQESTEEAASLRQELTQQQELYGQALQEKVAEVETRLREQLSDTERRLNEARREHAKAVVSLRQIQRRAAQEKERSQELRRLQEEARKEEGQRLARRLQELERDKNLMLATLQQEGLLSRYKQQRLLTVLPSLLDKKKSVVSSPRPPECSASAPVAAAVPTRESIKGSLSVLLDDLQDLSEAISKEEAVCQGDNLDRCSSSNPQMSS
notes: also called Flag-CCHCR1; 3XFLAG CCHCR1; source: 293 T cells, transfected (pCiNeo-3XF), in lysate
In the case of B2, the “fold decrease of the NLR of HPV16 E2 with BRD4 in the presence of CCHCR1” value in test [2] worked out at 5 fold.
